In this assay the target is Met1-linked tri-ubiquitin chain (UniProt P0CG48 1-76; P0CG48 1-76; P0CG48 1-76). Put plainly: SPR.

Results on one molecule are retold here after paper PMC4775417 (Structure (London, England : 1993), 2016).

Chain of Met1-linked tri-ubiquitin chain (P0CG48 1-228, one chain of several): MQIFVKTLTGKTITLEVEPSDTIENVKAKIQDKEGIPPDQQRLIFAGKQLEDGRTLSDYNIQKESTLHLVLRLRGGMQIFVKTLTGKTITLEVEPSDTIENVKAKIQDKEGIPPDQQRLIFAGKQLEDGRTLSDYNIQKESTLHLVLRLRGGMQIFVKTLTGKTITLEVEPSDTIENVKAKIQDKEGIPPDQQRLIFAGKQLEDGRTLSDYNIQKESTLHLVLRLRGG

B1: His-tagged AIRAPL tUIM (residues 188-240), wild type (domain or fragment, mouse, UniProt Q91X58 188-240, looked up)
chain: PVIALQNGLSEDEALQRALELSLAEAKPQVLSSQEEDDLALAQALSASEAEYQ
As to B1, the binding result is “binds”.
